Measurements from patent US20240117030A1 (Pfizer, published 2024).
Positions count from the first letter of the chain named.

B1: TSLP-0260 (antibody, V domains shown)
VH: QMQLVESGGGVVQPGRSLRLSCAASGFTFRTYGMHWVRQAPGKGLEWVAVIWYDGSNKHYADSVKGRFTISRDNSKNTLYLQMNSLRAEDTAVYYCARAPQWYLVHEAFDIWGQGTMVTVSS
VL: SYVLTQPPSVSVAPGQTARITCGGNNLGSKSVHWYQQKPGQAPVLVVYDDSDRPSWIPERFSGSNSGNTATLTISRGEAGDEADYYCQVWDESSDHVVFGGGTKLTVLG
B2: TSLP-0156 (antibody, human IgG1, lambda, V domains shown)
VH: B1 VH
VL: B1 VL with E92S
B3: IL413TSLP-1037 (trispecific antibody)
heavy: not shown
chain 1: DIQMTQSPSSLSASVGDRVTITCKASESVDHFGWSLVHWYQQKPGKAPKLLIYRASNLESGVPSRFSGSGSGTDFTLTISSLQPEDFATYYCQQSNEDPWTFGGGTKVEIKRTVAAPSVFIFPPSDEQLKSGTASVVCLLNNFYPREAKVQWKVDNALQSGNSQESVTEQDSKDSTYSLSSTLTLSKADYEKHKVYACEVTHQGLSSPVTKSFNRGECGGGGSEVTLRESGPALVKPTQTLTLTCTFSGFSLSNFGEGLSWIRQPPGKGLEWLAHIYWDDDKRYNPSLKSRLTISKDTSRNQVVLTMTNMDPVDTATYYCARRETVFYWYFDVWGQGTTVTVSSASTKGPSVFPLAPSSKSTSGGTAALGCLVKDYFPEPVTVSWNSGALTSGVHTFPAVLQSSGLYSLSSVVTVPSSSLGTQTYICNVNHKPSNTKVDKKVEPKSCEKTHTCPPCPAPEAAGAPSVFLFPPKPKDTLMISRTPEVTCVVVDVSHEDPEVKFNWYVDGVEVHNAKTKPREEQYNSTYRVVSVLTVLHQDWLNGKEYKCKVSNKALPAPIEKTISKAKGQPREPQVYTLPPSREEMTKNQVSLTCEVKGFYPSDIAVEWESNGQPENNYKTTPPVLDSDGSFFLYSKLTVDKSRWQQGNVFSCSVLHEALHSHYTQKSLSLSPGK
light 1: SYVLTQPPSVSVAPGQTARITCGGNNLGSKSVHWYQQKPGQAPVLVVYDDKDRPSWIPERFSGSNSGNTATLTISRGEAGDEADYYCQVWDKSSDHVVFGGGTKLTVLGQPKAAPSVTLFPPSSEELQANKATLVCLISDFYPGAVTVAWKADSSPVKAGVETTTPSKQSNNKYAASSYLSLTPEQWKSHRSYSCQVTHEGSTVEKTVAPTECS
light 2: DIQMTQSPSSLSASVGDRVTITCRASQSVDEEGDSYMNWYQQKPGKAPKLLIYAASNLESGVPSRFSGSGSGTDFTLTISSLQPEDFATYYCQQSNKDPPTFGGGTKVEIKRTVAAPSVFIFPPSDEQLKSGTASVVCLLNNFYPREAKVQWKVDNALQSGNSQESVTEQDSKDSTYSLSSTLTLSKADYEKHKVYACEVTHQGLSSPVTKSFNRGEC
chain 2: EVQLVESGGGLVQPGGSLRLSCAASGFTFSSYAMSWVRQAPGKGLEWVASISSGDTTYYPDSVKGRFTISRDNAKNSLYLQMNSLRAEDTAVYYCARNEGYYFGLTLWGQGTLVTVSSASTKGPSVFPLAPSSKSTSGGTAALGCLVKDYFPEPVTVSWNSGALTSGVHTFPAVLQSSGLYSLSSVVTVPSSSLGTQTYICNVNHKPSNTKVDKKVEPKSC

Legend:
Assay in all cases: cell-based or functional assay
[1] = target: T1, recombinant human TSLP (glycosylated long form) (human, UniProt Q969D9 29-159)
[2] = target: T1, recombinant human TSLP (glycosylated …); remark: listed apart in the source
human IL-13 = human IL-13 (human, UniProt P35225 35-146)
human IL-4 = target: T2, human IL-4 (human, UniProt P05112 25-153)
T2 sequence (looked up): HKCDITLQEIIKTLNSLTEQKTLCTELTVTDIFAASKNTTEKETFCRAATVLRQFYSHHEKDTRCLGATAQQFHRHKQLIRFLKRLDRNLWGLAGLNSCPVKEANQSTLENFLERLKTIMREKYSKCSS

human TSLP (long form) = human TSLP (long form) (human, UniProt Q969D9 29-159, Biotinylated on the Avi tag in some assays; glycosylated (Expi293F expression))

Chain of human IL-13 (P35225 35-146 limits assumed, form in doubt): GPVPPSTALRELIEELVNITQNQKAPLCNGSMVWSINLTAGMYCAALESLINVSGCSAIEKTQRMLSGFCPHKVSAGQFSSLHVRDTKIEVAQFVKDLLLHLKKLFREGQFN

Binder	a-TSLP TARC bioassay (fold change to TSLP-0001) [1] [fold]	TARC bioassay (IC50, pM) [2] [pM]	IC50, IL-13-induced CCL17 secretion by 769-P cells (human IL-13) [nM]	IC50, IL-4-induced CCL17 secretion by 769-P cells (human IL-4) [nM]	fold lower potency than the mAb (TSLP-0871), monocyte TARC bioassay (human TSLP (long form)) [fold]
B1	3.4	6.65	–	–	–
B2	–	4.25	–	–	–
B3	–	–	0.593	0.179	~2.5
